The data set deals with the molecule itself. Description: crystal structure.

The term stoichiometry N denotes a count of units in the complex or per binding partner.

B1: KirBac3.1 S129R mutant channel (natural protein)
chain: MTGGMKPPARKPRILNSDGSSNITRLGLEKRGWLDDHYHDLLTVSWPVFITLITGLYLVTNALFALAYLACGDVIENARPGSFTDAFFFSVQTMATIGYGKLIPIGPLANTLVTLEALCGMLGLAVAARLIYARFTRPTAGVLFSSRMVISDFEGKPTLMMRLANLRIEQIIEADVHLVLVRSEISQEGMVFRRFHDLTLTRSRSPIFSLSWTVMHPIDHHSPIYGETDETLRNSHSEFLVLFTGHHEAFAQNVHARHAYSCDEIIWGGHFVDVFTTLPDGRRALDLGKFHEIAQ
Consider B1, for which the “stoichiometry N” value came out at 4.
